This data set can be described thus: protein stability index of a GFP-peptide fusion (yeast GPS) (PSI 1-4); higher = more stable; sorted into four equal gates, so the index is relative within each strain. The method, boiled down:
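Tiled 17-residue peptides from yeast proteins were fused downstream of GFP on a plasmid that also expresses Cherry, and the pooled library was carried in yeast. Mid-log cultures grown in leucine-free medium were sorted into four equal gates by GFP/Cherry fluorescence ratio. Plasmids from each gate were PCR-amplified and Illumina-sequenced, and reads were assigned to strains by barcodes. Each peptide's protein stability index is the sum, over gates, of the gate's read frequency multiplied by its gate number.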

± gives the uncertainty stated by the source.

In the case of LIKQVPRLLGPQLSKAG [RPL1A], the protein stability index by setting is: (doa10∆) 1.98 ± 0.068; (pdr5∆) 1.73 ± 0.06; (san1∆) 1.78 ± 0.081; (ubr1∆) 1.6 ± 0.059.
In the case of LIKTLSTLHMLGYTHIA [RPP1], the protein stability index runs as follows: (doa10∆) 2.49 ± 0.081; (pdr5∆) 2.65 ± 0.087; (san1∆) 2.62 ± 0.099; (ubr1∆) 2.65 ± 0.071.
Regarding LINEILLKSNDPLLSLY [RGR1], the protein stability index came to 2.04 ± 0.046 (doa10∆), 2.15 ± 0.043 (pdr5∆), 1.87 ± 0.077 (san1∆) and 2.13 ± 0.035 (ubr1∆).
LIQQVPPGLDALVKPET [CDC53]: the protein stability index is 3.02 ± 0.12 (doa10∆), 2.98 ± 0.13 (pdr5∆), 2.83 ± 0.13 (san1∆) and 3.24 ± 0.14 (ubr1∆).
On to LIRLQMEKLDAKLNHLK [SWI3], for which the protein stability index (doa10∆) was 3.06 ± 0.17, the protein stability index (pdr5∆) was determined as 3.04 ± 0.15, the protein stability index (san1∆) amounted to 2.85 ± 0.15 and the protein stability index (ubr1∆) came out at 3.1 ± 0.2.
For LISGKAGVLNGTLEYGT [RET1] the same measures were 2.83 ± 0.056, 3.03 ± 0.062, 3.02 ± 0.063 and 2.99 ± 0.059.
For LISLIMTTWRKLYTKEL [YMR129W/POM152] the same measures were 2.35 ± 0.092, 1.15 ± 0.093, 1.42 ± 0.17 and 1.16 ± 0.044.
For LISRMIFIATQLEKKIR [BRR2] the same measures were 1.75 ± 0.075, 1.9 ± 0.059, 1.28 ± 0.12 and 2.03 ± 0.054.
As to LKALSHHYNPKTKKLNL [BRR2], the protein stability index is, setting by setting: (doa10∆) 2.46 ± 0.088; (pdr5∆) 2.4 ± 0.086; (san1∆) 2.33 ± 0.11; (ubr1∆) 2.69 ± 0.053.
LKEILNVAKNMKTPSLT [RPO21]: the protein stability index runs as follows: (doa10∆) 3.33 ± 0.12; (pdr5∆) 3.06 ± 0.11; (san1∆) 3.1 ± 0.072; (ubr1∆) 3.47 ± 0.12.
On the same counts, the results for LKESYSQKHNGRILKWL [CDC53] are 2.01 ± 0.059, 2.69 ± 0.057, 2.34 ± 0.055 and 2.14 ± 0.056.
In the case of LKETVIPSLANNGNNST [POP6], the protein stability index (doa10∆) was found to be 2.41 ± 0.058, the protein stability index (pdr5∆) stood at 3.01 ± 0.065, the protein stability index (san1∆) stood at 2.54 ± 0.068 and the protein stability index (ubr1∆) is 2.56 ± 0.05.
Consider LKFAVQVDKVTKEKVNG [RPL26A], for which the protein stability index was determined as 3.23 ± 0.21 (doa10∆), 3.4 ± 0.16 (pdr5∆), 2.71 ± 0.11 (san1∆) and 3.01 ± 0.069 (ubr1∆).
Turning to LKFNSTEYRGTLVSTDN [SMX3], the protein stability index runs as follows: (doa10∆) 1.74 ± 0.04; (pdr5∆) 2.59 ± 0.049; (san1∆) 2.27 ± 0.067; (ubr1∆) 2.25 ± 0.041.
Regarding LKFVKVRVRTTKIPQIG [RPB2], the protein stability index stood at 2.51 ± 0.073 (doa10∆), 2.55 ± 0.079 (pdr5∆), 2.85 ± 0.13 (san1∆) and 2.52 ± 0.04 (ubr1∆).
On the same counts, the results for LKGLNGFPSAPQPLFME [YMR153W/NUP53] are 2.53 ± 0.067, 3.04 ± 0.066, 2.85 ± 0.067 and 2.69 ± 0.062.
For LKGRVVEVCLADLQGSE [RPS1A] the same measures were 2.65 ± 0.062, 3.08 ± 0.071, 2.51 ± 0.076 and 2.49 ± 0.055.
LKKANIIYHTTFSWLNA [YLR018C/POM34] yielded a protein stability index (doa10∆) of 2.46 ± 0.043, a protein stability index (pdr5∆) of 2.45 ± 0.044, a protein stability index (san1∆) of 2.41 ± 0.043 and a protein stability index (ubr1∆) of 2.54 ± 0.036.
On to LKKGEVSLGTSIMAVTF [PRE3], for which the protein stability index (pdr5∆) worked out at 1.67 ± 0.23, the protein stability index (san1∆) was found to be 1.13 ± 0.18 and the protein stability index (ubr1∆) is 1.13 ± 0.18.
Take LKNLLRSNFRVNLSQEA [SNU114]: the protein stability index by setting is: (doa10∆) 2.05 ± 0.093; (pdr5∆) 2.26 ± 0.089; (san1∆) 2.58 ± 0.11; (ubr1∆) 2.58 ± 0.11.
With LKNTKYFQQTTIDWVEA [PRP8], the protein stability index (doa10∆) was determined as 2.93 ± 0.078, the protein stability index (pdr5∆) amounted to 2.96 ± 0.08, the protein stability index (san1∆) amounted to 2.83 ± 0.054 and the protein stability index (ubr1∆) is 2.75 ± 0.072.
For LKPVDKLKPMNIERKQT [SIN4] the same measures were 2.82 ± 0.11, 3.05 ± 0.11, 2.83 ± 0.088 and 3.04 ± 0.11.
For LKTFNGSLALLKLSMAD [POP4] the same measures were 2.33 ± 0.046, 2.33 ± 0.067, 2.45 ± 0.063 and 2.36 ± 0.036.
Regarding LKVRKGHIAKLMATEYQ [RPB2], the protein stability index runs as follows: (doa10∆) 2.52 ± 0.14; (pdr5∆) 2.33 ± 0.13; (san1∆) 1.28 ± 0.19; (ubr1∆) 1.86 ± 0.057.
For LKWIDTASKFGKGRFQT [RPL3] the same measures were 3.34 ± 0.11, 3.06 ± 0.094, 3.11 ± 0.071 and 3.09 ± 0.065.

Values taken from the supplement of paper PMC9732359.
